From patent US20150315289A1 (published 2015) come the findings set out here.

Positions of bridges follow the written chain, without caps; N, C: chain ends. No end group written: not given here.

Test [1] has as its target T1, linear phage-display peptide WTWNITKAYPLP
T1 peptide: WTWNITKAYPLP
As to the kind of experiment: phage-displayed peptide screen with hPAM4 and mPAM4.
From the text: (§1) The first was a linear peptide library consisting of 12 amino acid sequences and the second was a cyclic peptide consisting of 7 amino acid sequences cyclized by a disulfide bridge.

A further test deals with MUC17 (UniProt Q685J3 26-4493). As to the kind of experiment: immunofluorescence co-localisation on human carcinoma cell lines (data not shown).
Test [2] addresses T2, linear phage-display peptide WTWNITKEYPQP
T2 peptide: WTWNITKEYPQP
The test is described as follows: degenerate phage library panned and screened as before (hPAM4 and mPAM4).
From the text: as §1

Test [3] addresses T3, cyclic phage-display peptide ACPEWWGTTC (disulfide 2-10).
T3 peptide: ACPEWWGTTC
As to the kind of experiment: phage-displayed peptide immunoreactivity, against the linear peptide.

B1: humanized PAM4 (hPAM4) IgG (antibody, V domains shown)
VH: QVQLQQSGAEVKKPGASVKVSCEASGYTFPSYVLHWVKQAPGQGLEWIGYINPYNDGTQYNEKFKGKATLTRDTSINTAYMELSRLRSDDTAVYYCARGFGGSYGFAYWGQGTLVTVSS
VL: DIQLTQSPSSLSASVGDRVTMTCSASSSVSSSYLYWYQQKPGKAPKLWIYSTSNLASGVPARFSGSGSGTDFTLTISSLQPEDSASYFCHQWNRYPYTFGGGTRLEIKR
notes: humanized IgG1 kappa; used HRP-conjugated in some ELISAs and blots; also called clivatuzumab; HRP-hPAM4
Take B1: the binding result in test [1] was “binds”; in the test with MUC17 it was “no binding”; in test [2], “binds”.

B2: murine PAM4 (mPAM4) (antibody, V domains shown)
VH: EVQLQESGPELVKPGASVKMSCKASGYTFPSYVLHWVKQKPGQGLEWIGYINPYNDGTQYNEKFKGKATLTSDKSSSTAYMELSRLTSEDSAVYYCARGFGGSYGFAYWGQGTLITVSA
VL: DIVMTQSPAIMSASPGEKVTMTCSASSSVSSSYLYWYQQKPGSSPKLWIYSTSNLASGVPARFSGSGSGTSYSLTISSMEAEDAASYFCHQWNRYPYTFGGGTKLEIK
notes: also called MAb PAM4; mAb-PAM4
As for B2, the binding result in test [1] and in test [2] was “binds” throughout. The “immunoreactivity relative to the linear sequence” value in test [3] is ~10%.
